# Reference: US7267993 (AUBURN UNIVERSITY, dated 2007)
# What was measured:
# neutravidin = biological target: T1, neutravidin (chicken (stated for avidin), UniProt P02701 25-152); experiment: direct ELISA: phage immobilized in wells, alkaline phosphatase-labeled neutravidin in solution at varied concentration [top panel]
# T1 construct: Labeled with alkaline phosphatase in the ELISA; also called alkaline phosphatase-labeled neutravidin; avidin (from chicken egg white)
# Excerpt: (§1) Each binding curve is labeled with the altered amino acid sequence of the foreign peptide carried by the phage being tested (V_o=vector control). ELISA signal (mOD/min) is shown as a function of ligand concentration (micrograms/ml for top two panels; nanomolar for bottom panel).
# (§2) *Escherichia coli*). Each protein was absorbed to the surface of a 35-mm polystyrene Petri dish and exposed to the phage library. Unbound phage were washed away, and bound phage was eluted with acid buffer and amplified by infecting fresh bacterial host cells. […] The selected phage were further characterized by enzyme linked immuno sorbent assay (ELISA) in which the phage were immobilized on the plastic surface of ELISA wells and reacted with the ligands in solution phase. Neutravidin and streptavidin were labeled with alkaline phosphatase, while β-galactosidase was unlabeled. […] Inhibition ELISAs verified that non-immobilized peptide-bearing phage compete with immobilized phage for binding to their respective ligands.
# [1] = biological target: T2, β-galactosidase from Escherichia coli (Escherichia coli, UniProt P00722 2-1024 = β-galactosidase); experiment: direct ELISA: phage immobilized in wells, unlabeled β-galactosidase in solution at varied concentration [bottom panel]
# T2 construct: Unlabeled in the ELISA; in solution in all assays; also called b-galactosidase
# T2 sequence (P00722 2-1024 limits assumed): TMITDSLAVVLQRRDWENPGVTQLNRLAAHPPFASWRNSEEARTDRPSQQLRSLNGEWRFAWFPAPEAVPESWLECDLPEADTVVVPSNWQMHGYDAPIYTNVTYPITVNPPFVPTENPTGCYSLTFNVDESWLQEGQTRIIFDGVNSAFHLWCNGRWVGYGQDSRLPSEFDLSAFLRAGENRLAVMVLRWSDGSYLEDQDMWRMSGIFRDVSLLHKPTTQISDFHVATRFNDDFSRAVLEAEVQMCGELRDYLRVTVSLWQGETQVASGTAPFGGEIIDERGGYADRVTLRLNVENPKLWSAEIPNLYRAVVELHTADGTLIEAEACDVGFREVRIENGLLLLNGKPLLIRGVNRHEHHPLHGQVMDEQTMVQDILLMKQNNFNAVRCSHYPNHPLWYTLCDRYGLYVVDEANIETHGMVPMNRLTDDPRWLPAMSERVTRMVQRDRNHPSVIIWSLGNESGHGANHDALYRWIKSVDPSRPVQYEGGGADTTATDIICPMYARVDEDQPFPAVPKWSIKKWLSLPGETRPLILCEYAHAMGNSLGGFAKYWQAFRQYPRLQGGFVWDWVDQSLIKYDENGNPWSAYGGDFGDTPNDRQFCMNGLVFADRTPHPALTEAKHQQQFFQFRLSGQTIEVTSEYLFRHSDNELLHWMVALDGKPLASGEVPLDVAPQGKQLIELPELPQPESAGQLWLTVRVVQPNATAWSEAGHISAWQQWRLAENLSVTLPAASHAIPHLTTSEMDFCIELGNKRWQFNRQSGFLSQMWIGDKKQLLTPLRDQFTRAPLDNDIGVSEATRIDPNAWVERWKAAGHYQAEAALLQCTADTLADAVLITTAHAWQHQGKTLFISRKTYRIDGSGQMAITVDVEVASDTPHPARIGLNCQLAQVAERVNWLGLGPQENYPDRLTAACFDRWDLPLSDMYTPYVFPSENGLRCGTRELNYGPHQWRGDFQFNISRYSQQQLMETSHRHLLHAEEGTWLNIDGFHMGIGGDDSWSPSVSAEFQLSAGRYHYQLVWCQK
# Excerpt: as §1, §2
# [2] = biological target: β-galactosidase from Escherichia coli (Escherichia coli) [β-galactosidase: P00722]; experiment: as above
# β-galactosidase from Escherichia coli (Escherichia coli) [β-galactosidase: P00722], sequence (P00722 2-1024 limits assumed): as above
# T1 sequence (P02701 25-152 limits assumed): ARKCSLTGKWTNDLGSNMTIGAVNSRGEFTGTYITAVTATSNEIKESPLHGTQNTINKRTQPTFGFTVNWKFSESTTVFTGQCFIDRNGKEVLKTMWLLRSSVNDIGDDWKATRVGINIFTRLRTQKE
Binder,EC50 (read off the curve) (neutravidin),EC50 (read off the curve) [1],further results
"VPEYTGPS (other, landscape phage immobilized in ELISA wells; belongs to group m4)",~3 micrograms/ml,,
"VPEYKGAS (other, landscape phage immobilized in ELISA wells; belongs to group m4)",~3 micrograms/ml,,
"EKTLAYNQ (other, landscape phage immobilized in ELISA wells)",,~40 nM,
"EKTLAYSQ (other, landscape phage immobilized in ELISA wells)",,~70 nM,
VTFAAANT,,,EC50 (read off the curve) [2]: 100 nM
"DTFAKSMQ (other, landscape phage immobilized in ELISA wells)",,~60 nM,
